According to US20110287512:

What was measured:
[1] = system: ZFP7263 linker TYPRPLLAKP center linker F2-F3 TGSQKP replaced by TYPRPLLAKP (artificial); assay: ELONA; conditions: normalized ELISA score
[2] = system: ZFP7263 linker TPRPPIPKP (artificial)
[3] = system: ZFP7263 linker LRQKDERP (artificial)
[4] = system: ZFP7263 linker TPLCQRPMKQKP (artificial)
[5] = system: ZFP7263 (host, center linker TGSQKP) (artificial)
[6] = system: ZFP7263 linker TQRPQIPPKP (artificial)
[7] = system: ZFP7263 linker TGGGGSQKP (artificial)
[8] = system: ZFP7263 linker TPNRCPPTKP (artificial)
[9] = system: ZFP7263 linker TGEGGKP (artificial)
[10] = system: ZFN7264 linker TSRPRPKP (artificial); assay: cell_activity; conditions: yeast, paired with 7263 ZFN
[11] = system: ZFN7264 (host, center linker TGSQKP) (synthetic); assay: cell_activity; conditions: yeast, partner ZFN7263; host on 0-bp gap = 1.00; host data same as Table 9
[12] = system: ZFN7264 linker TGGGGSQKP (artificial); assay: cell_activity; conditions: yeast, paired with 7263 ZFN
[13] = system: ZFN7264 linker TGLPKPKP (artificial); assay: cell_activity; conditions: yeast, paired with 7263 ZFN
[14] = system: ZFN7264 linker 1e (artificial); assay: cell_activity; conditions: yeast, paired with 7263 ZFN
[15] = system: ZFN7263 linker TPNRCPPTKP (artificial); assay: cell_activity; conditions: yeast, paired with 7264 ZFN
[16] = system: ZFN7263 linker TYPRPLLAKP (artificial); assay: cell_activity; conditions: yeast, paired with 7264 ZFN
[17] = system: ZFN7263 linker TPRPPIPKP (artificial); assay: cell_activity; conditions: yeast, paired with 7264 ZFN
[18] = system: ZFN7263 linker TQRPQIPPKP (artificial); assay: cell_activity; conditions: yeast, paired with 7264 ZFN
[19] = system: ZFN7263 (host) (artificial); assay: cell_activity; conditions: yeast, paired with 7264 ZFN
[20] = system: ZFN7263 linker TPLCQRPMKQKP (artificial); assay: cell_activity; conditions: yeast, paired with 7264 ZFN
[21] = system: ZFN7263 linker TGGGGSQKP (artificial); assay: cell_activity; conditions: yeast, paired with 7264 ZFN
[22] = system: ZFP7264 linker 1e center linker F2-F3 TGSQKP replaced by TVPRPTPPKP (artificial); assay: ELONA; conditions: normalized ELISA score
[23] = system: ZFP7264 (host, center linker TGSQKP) (artificial)
[24] = system: ZFP7264 linker TLPLPRPKP (artificial)
[25] = system: ZFP7264 linker TSRPRPKP (artificial)
[26] = system: ZFP7264 linker TLPPCFRPKP (artificial)
[27] = system: ZFP7264 linker TGLPKPKP (artificial)
[28] = system: ZFP7264 linker TKHGTPKHREDKP (artificial)
[29] = system: ZFP7264 linker TGEGGKP (artificial)
[30] = system: ZFP7264 linker TGGGGSQKP (artificial)
[31] = system: ZFP7264 linker LRQKDERP (artificial)
[32] = system: ZFP8196 linker 1f center linker F2-F3 TGEKP replaced by TYPRPIAAKP (artificial); assay: ELONA; conditions: normalized ELISA score
[33] = system: ZFP8196 linker TEPRAKPPKP (artificial)
[34] = system: ZFP8196 linker TPDRPISTCKP (artificial)
[35] = system: ZFP8196 linker 1c (artificial)
[36] = system: ZFP8196 linker TCPRPPTRKP (artificial)
[37] = system: ZFP8196 linker 1d (artificial)
[38] = system: ZFP8196 linker TGYSIPRPKP (artificial)
[39] = system: ZFP8196 linker TGGGGSQKP (artificial)
[40] = system: ZFP8196 linker TSSPRSNAKP (artificial)
[41] = system: ZFP8196 linker TPSHTPRPKP (artificial)
[42] = system: ZFP8196 linker TPDAPKPKP (artificial)
[43] = system: ZFP8196 linker LRQKDERP (artificial)
[44] = system: ZFP8196 linker TGEGGKP (artificial)
[45] = system: ZFP8196 linker TVSPAPCRSKP (artificial)
[46] = system: ZFP8196 linker TPGLHRPKP (artificial)
[47] = system: ZFP8196 linker TSPRLPAPKP (artificial)
[48] = system: ZFP8196 (host, center linker TGEKP) (artificial)

TTAGCCACTCTGGTGGAAGTGTATC (double strand) [7263 target gap G]
binding signal [1]: 3.88
binding signal (normalized ELISA) [2]: 1.85
binding signal (normalized ELISA) [3]: 0.18
binding signal (normalized ELISA) [4]: 3.44
binding signal (normalized ELISA) [5]: 0.03
binding signal (normalized ELISA) [6]: 2.86
binding signal (normalized ELISA) [7]: 0.41
binding signal (normalized ELISA) [8]: 2.62
binding signal (normalized ELISA) [9]: 0.05

AAAGCGGGCTCCG (double strand) [7264 yeast half-site gap G]
activity (normalized MEL-1) [10]: 0.61
activity (normalized MEL-1) [11]: 0.09
activity (normalized MEL-1) [12]: 0.14
activity (normalized MEL-1) [13]: 0.42
activity (normalized MEL-1) [14]: 1.4

ACTCTGGTGGAAG (double strand) [7263 yeast half-site gap G]
activity (normalized MEL-1) [15]: 2.85
activity (normalized MEL-1) [16]: 2.21
activity (normalized MEL-1) [17]: 2.18
activity (normalized MEL-1) [18]: 2.18
activity (normalized MEL-1) [19]: 0.09
activity (normalized MEL-1) [20]: 1.52
activity (normalized MEL-1) [21]: 0.6

ACTCTGCTGGAAG (double strand) [7263 yeast half-site gap C]
activity (normalized MEL-1) [15]: 0.34
activity (normalized MEL-1) [16]: 0.37
activity (normalized MEL-1) [17]: 1.41
activity (normalized MEL-1) [18]: 0.43
activity (normalized MEL-1) [19]: 0.05
activity (normalized MEL-1) [20]: 0.3
activity (normalized MEL-1) [21]: 0.04

AAAGCGAGCTCCG (double strand) [7264 yeast half-site gap A]
activity (normalized MEL-1) [10]: 0.18
activity (normalized MEL-1) [11]: 0.05
activity (normalized MEL-1) [12]: 0.08
activity (normalized MEL-1) [13]: 0.08
activity (normalized MEL-1) [14]: 1.24

TTAGCCACTCTGATGGAAGTGTATC (double strand) [7263 target gap A]
binding signal [1]: 1.95
binding signal (normalized ELISA) [2]: 0.97
binding signal (normalized ELISA) [3]: 0.03
binding signal (normalized ELISA) [4]: 1.82
binding signal (normalized ELISA) [5]: 0.01
binding signal (normalized ELISA) [6]: 1.66
binding signal (normalized ELISA) [7]: 0.06
binding signal (normalized ELISA) [8]: 1.68
binding signal (normalized ELISA) [9]: 0.02

TTAGTTAAAGCGCGCTCCGAATATC (double strand) [7264 target gap C]
binding signal [22]: 1.02
binding signal (normalized ELISA) [23]: 0
binding signal (normalized ELISA) [24]: 0.25
binding signal (normalized ELISA) [25]: 0.22
binding signal (normalized ELISA) [26]: 0.25
binding signal (normalized ELISA) [27]: 0.11
binding signal (normalized ELISA) [28]: 0.01
binding signal (normalized ELISA) [29]: 0.03
binding signal (normalized ELISA) [30]: 0.04
binding signal (normalized ELISA) [31]: 0.03

AAAGCGCGCTCCG (double strand) [7264 yeast half-site gap C]
activity (normalized MEL-1) [10]: 0.08
activity (normalized MEL-1) [11]: 0.05
activity (normalized MEL-1) [12]: 0.07
activity (normalized MEL-1) [13]: 0.07
activity (normalized MEL-1) [14]: 0.14

TTAGATAAACTGGCAAAAGGCTATC (double strand) [8196 target gap G]
binding signal [32]: 0.65
binding signal (normalized ELISA) [33]: 0.78
binding signal (normalized ELISA) [34]: 0.29
binding signal (normalized ELISA) [35]: 0.57
binding signal (normalized ELISA) [36]: 0.48
binding signal (normalized ELISA) [37]: 0.52
binding signal (normalized ELISA) [38]: 0.43
binding signal (normalized ELISA) [39]: 0
binding signal (normalized ELISA) [40]: 0.2
binding signal (normalized ELISA) [41]: 0.84
binding signal (normalized ELISA) [42]: 0.68
binding signal (normalized ELISA) [43]: 0.04
binding signal (normalized ELISA) [44]: 0.03
binding signal (normalized ELISA) [45]: 0.14
binding signal (normalized ELISA) [46]: 0.65
binding signal (normalized ELISA) [47]: 0.62
binding signal (normalized ELISA) [48]: 0.03

TTAGATAAACTGCCAAAAGGCTATC (double strand) [8196 target gap C]
binding signal [32]: 0.14
binding signal (normalized ELISA) [33]: 0.17
binding signal (normalized ELISA) [34]: 0.05
binding signal (normalized ELISA) [35]: 0.09
binding signal (normalized ELISA) [36]: 0.05
binding signal (normalized ELISA) [37]: 0.09
binding signal (normalized ELISA) [38]: 0.06
binding signal (normalized ELISA) [39]: 0
binding signal (normalized ELISA) [40]: 0.02
binding signal (normalized ELISA) [41]: 0.13
binding signal (normalized ELISA) [42]: 0.13
binding signal (normalized ELISA) [43]: 0.01
binding signal (normalized ELISA) [44]: 0
binding signal (normalized ELISA) [45]: 0.01
binding signal (normalized ELISA) [46]: 0.1
binding signal (normalized ELISA) [47]: 0.14
binding signal (normalized ELISA) [48]: 0.01

AAAGCGTTGCTCCG (double strand) [7264 yeast half-site gap TT]
activity (normalized MEL-1) [10]: 0.03
activity (normalized MEL-1) [11]: 0.09
activity (normalized MEL-1) [12]: 0.12
activity (normalized MEL-1) [13]: 0.11
activity (normalized MEL-1) [14]: 0.12

ACTCTGACTGGAAG (double strand) [7263 yeast half-site gap AC]
activity (normalized MEL-1) [15]: 0.04
activity (normalized MEL-1) [16]: 0.1
activity (normalized MEL-1) [17]: 0.05
activity (normalized MEL-1) [18]: 0.03
activity (normalized MEL-1) [19]: 0.09
activity (normalized MEL-1) ([20]; value as printed): 1.05
activity (normalized MEL-1) [21]: 0.04

TTAGCCACTCTGCTGGAAGTGTATC (double strand) [7263 target gap C]
binding signal [1]: 1.27
binding signal (normalized ELISA) [2]: 0.67
binding signal (normalized ELISA) [3]: 0.02
binding signal (normalized ELISA) [4]: 1.28
binding signal (normalized ELISA) [5]: 0.01
binding signal (normalized ELISA) [6]: 1
binding signal (normalized ELISA) [7]: 0.05
binding signal (normalized ELISA) [8]: 1.13
binding signal (normalized ELISA) [9]: 0.02

TTAGATAAACTGACAAAAGGCTATC (double strand) [8196 target gap A]
binding signal [32]: 0.41
binding signal (normalized ELISA) [33]: 0.39
binding signal (normalized ELISA) [34]: 0.11
binding signal (normalized ELISA) [35]: 0.2
binding signal (normalized ELISA) [36]: 0.18
binding signal (normalized ELISA) [37]: 0.23
binding signal (normalized ELISA) [38]: 0.13
binding signal (normalized ELISA) [39]: 0
binding signal (normalized ELISA) [40]: 0.05
binding signal (normalized ELISA) [41]: 0.3
binding signal (normalized ELISA) [42]: 0.16
binding signal (normalized ELISA) [43]: 0.01
binding signal (normalized ELISA) [44]: 0
binding signal (normalized ELISA) [45]: 0.03
binding signal (normalized ELISA) [46]: 0.19
binding signal (normalized ELISA) [47]: 0.26
binding signal (normalized ELISA) [48]: 0.01

TTAGTTAAAGCGGGCTCCGAATATC (double strand) [7264 target gap G]
binding signal [22]: 1.58
binding signal (normalized ELISA) [23]: 0
binding signal (normalized ELISA) [24]: 0.85
binding signal (normalized ELISA) [25]: 0.77
binding signal (normalized ELISA) [26]: 0.77
binding signal (normalized ELISA) [27]: 0.38
binding signal (normalized ELISA) [28]: 0.01
binding signal (normalized ELISA) [29]: 0.05
binding signal (normalized ELISA) [30]: 0.08
binding signal (normalized ELISA) [31]: 0.06

ACTCTGATGGAAG (double strand) [7263 yeast half-site gap A]
activity (normalized MEL-1) [15]: 1.3
activity (normalized MEL-1) [16]: 0.69
activity (normalized MEL-1) [17]: 1.3
activity (normalized MEL-1) [18]: 1.05
activity (normalized MEL-1) [19]: 0.05
activity (normalized MEL-1) [20]: 0.97
activity (normalized MEL-1) [21]: 0.14

TTAGTTAAAGCGAGCTCCGAATATC (double strand) [7264 target gap A]
binding signal [22]: 2.35
binding signal (normalized ELISA) [23]: 0
binding signal (normalized ELISA) [24]: 0.58
binding signal (normalized ELISA) [25]: 0.52
binding signal (normalized ELISA) [26]: 0.72
binding signal (normalized ELISA) [27]: 0.19
binding signal (normalized ELISA) [28]: 0.01
binding signal (normalized ELISA) [29]: 0.02
binding signal (normalized ELISA) [30]: 0.07
binding signal (normalized ELISA) [31]: 0.05
